Test results taken from US9505841B2, “Use of an anti-Ang2 antibody” (Samsung Electronics Co., Ltd., priority 2013, dated 2016).

What was measured:
[1] = tested on: Tie2 receptor; assay: Tie2, Akt and 42/44 phosphorylation in HUVEC: antibody 10D6 versus 10D6 Fab; assay type: cell-based, human; details: 60 nM 10D6 antibody or 10D6 Fab with 40 nM Ang2
Experimental: To see whether the activation of a Tie2 receptor is resulted from the dimerization of antibody 10D6, Fab fragments of antibody 10D6 were purified and then used for this experiment. The Fab fragments were obtained from antibody 10D6 using an Fab Preparation Kit (Pierce). As a digestion buffer, PBS containing 20 mM EDTA and 20 mM L-Cysteine was used, and the antibody was separated into Fab and Fc by the treatment with an immobilized papain at a room temperature for 2 hours. The Fc fragments were removed from the reaction solution using MabSelectSuRe column (GE Healthcare) to isolate and purify pure Fab fragments only.
HUVEC (ATCC) cells (1×10^6) were cultured in a 100 mm culture dish using EGM-2 (Lonza) media at 37° C. and when they reached 80˜90% confluency, the media were replaced with serum-free media (Lonza) and cultured at 37° C. for 6 to 16 hours. The dish was washed once with PBS and after the replacement with […] sodium orthovanadate (Sigma)-mixed serum free media (Lonza), they were further cultured for 10 min. After washed once with PBS, the cultured cells were treated with a mixture prepared by mixing 60 nM of 10D6 Ang2 antibody or 10D6 Fab with 40 nM of Ang2 protein (R&D systems) and letting them stand for 20 min. and further cultured for 10 min. […]

[2] = tested on: LLC (Lewis Lung Carcinoma); assay: LLC tumor growth model; assay type: in vivo, mouse; details: LLC in C57BL/6 mice; 10 mg/kg intraperitoneal three times a week; control Fc of IgG1
Experimental: To see the tumor growth inhibitory effects of Ang2 antibody, a […] Xenograft model using a LLC (Lewis Lung Carcinoma) was employed.
LLC cells (ATCC) were cultured using 10% FBS (Gibco)-supplemented DMEM (Gibco) media. 1×10^6 of LLC cells were re-suspended in 100 ul of PBS (Gibco) and then subcutaneously injected into 6˜8-week-old C57BL/6 mice (Jackson Laboratory) anesthetized with 1˜2% isoflurane.
When the size of tumors reached 50˜100 mm^3, anti-Ang2 antibody (10D6) was injected at the concentration of 10 mg/kg via an intraperitoneal injection three times a week and the size of the tumors was measured.
The size of tumor (V) was calculated using the following formula: Volume (V)=(width)2×length/2
For comparison, the same experiment was performed to a control group treated with Fc of IgG1 and a comparative group treated with antibody 4H10 (refer to Example 3).

[3] = tested on: LLC tumor; assay: Co-administration of anti-Ang2 antibody and cisplatin in LLC lung cancer animal model; assay type: in vivo, mouse; details: LLC mice; antibody 10 mg/kg i.p. every three days, five times; cisplatin 3 mg/kg i.p. once; control Fc of IgG1
Experimental: The synergistic effect of co-treatment of antibody 10D6 and cisplatin was examined.
In particular, referring to Example 14, LLC tumor cells were subcutaneously injected into mice. When the size of tumors reached 50˜100 mm^3, anti-Ang2 antibody 10D6 was injected at the concentration of 10 mg/kg via an intraperitoneal injection every three days a total of five times. After administering antibody 10D6 twice, 3 mg/kg of cisplatin (Sigma-Aldrich) was intraperitoneally injected once. The size of tumor (V) was calculated using the following formula: Volume (V)=(width)2×length/2
For comparison, the same experiment was performed to a control group treated with Fc of IgG1 and a comparative group treated with antibody 4H10.
In addition, an experiment was performed to examine whether the synergistic effect obtained by co-administration of 10D6 and cisplatin as described above is due to the increased transporting efficiency of the administered cisplatin induced by the vascular normalization by treatment of 10D6. Cisplatin binds to DNA in a living body and induces crosslinking, thereby inducing cell death. Rat monoclonal anti-Cisplatin modified DNA (CP9/19) antibody (1:200, Abcam), which is capable of binding to DNA modified by cisplatin in tumor frozen sections, and hamster anti-CD31 antibody (1:200, Millipore), were used for immunofluorescence staining, and fluorescence images were obtained using LSM5 confocal microscope (Zeiss). In addition, to examine necrotic region, the tumor frozen sections were stained with H&E according to standard protocol, and then, Eosin+ cell region in tumor was observed. The obtained results are illustrated in FIG. 18C.

B1: 10D6: mouse anti-Ang2 monoclonal antibody from hybridoma KCLRF-BP-00295; heavy chain variable region SEQ ID NO: 7, light chain variable region SEQ ID NO: 9 (antibody, V domains shown)
VH: DVQLQESGPGLVKPSQSLSLTCTVTGYSITSDYAWNWIRQFPGNKLEWMGYINYSGNTDYNPSLKSRSSITRDTSKNQFFLQLNSVTTGDTATYYCARGNFEGAMDYWGQGTSVTVSS
VL: SIVMTQTPKFLLVSAGDRVTITCKASQSVSNDVAWYQQKPGQSPKLLIYYASNRYPGVPDRFTGSGYGTDFTFTISTVQAEDLAVYFCQQDYSSPWTFGGGTKLEIK
modifications: Synthetic (Heavy chain variable region of an anti-Ang2 antibody); Synthetic (Light chain variable region of anti-Ang2 antibody)
phosphorylation of Tie2, Akt and 42/44 [1]: occurred
inhibition of growth of the tumor compared to the control group [2]: about 40%
tumor size decreased by, compared to the control [3]: 38.5%
